This passage reports ECL signal results from patent publication US20120058906A1 (published 2012).

The target of test [1] is T1, rHuman IGF-1 sR (IGF-1 sR), CF (R&D Systems Cat#391-GR) (human, UniProt P08069 31-932).
T1 construct: Bought soluble receptor; also called insulin-like growth factor-1 soluble receptor; IGF-R1
Kind of test: ECL (MSD multi-spot), antigen spotted on plate; Fab 8 nM; blank 1117.

Test [2] has as its target T2, rHuman EGF R/Fc Chimera, CF (R&D Systems Cat#344-ER) (human, UniProt P00533 25-645).
T2 construct: Bought protein; also called epidermal growth factor receptor; Fc part of the bought chimera not given
The test is described as above.

Test [3] deals with T3, rHuman HGF R/c-MET/Fc Chimera, CF (R&D Systems Cat#358-MT/CF) (human, UniProt P08581 25-932).
T3 construct: Bought protein; also called HGF R/Fc; hepatocyte growth factor receptor; Fc part of the bought chimera not given
The description is as above.

For test [4], the target named is T4, Recombinant Human DLL4 (R&D Systems Cat#1506-D4/CF) (human, UniProt Q9NR61 27-524).
T4 construct: Bought protein; also called rHuman DLL4; delta-like protein 4
Described as above.

In test [5] the target is T1, rHuman IGF-1 sR (IGF-1 sR), CF (R&D …). Kind of test: ECL (MSD multi-spot), antigen spotted on plate; Fab 200 nM; blank 1787.
The target in test [6] is T2, rHuman EGF R/Fc Chimera, CF (R&D …). The test is described as above.
In test [7] the target is T3, rHuman HGF R/c-MET/Fc Chimera, CF (R&D …). The test is described as above.
For test [8], the target named is T4, Recombinant Human DLL4 (R&D Systems …). Described as above.
Test [9] has as its target T1, rHuman IGF-1 sR (IGF-1 sR), CF (R&D …). Kind of test: ECL (MSD multi-spot), antigen spotted on plate; Fab 1.6 nM; blank 713.
Test [10] deals with T2, rHuman EGF R/Fc Chimera, CF (R&D …). The description is as above.
The target of test [11] is T3, rHuman HGF R/c-MET/Fc Chimera, CF (R&D …). The test is described as above.
The target in test [12] is T4, Recombinant Human DLL4 (R&D Systems …). The test is described as above.
Test [13] deals with T1, rHuman IGF-1 sR (IGF-1 sR), CF (R&D …). Kind of test: ECL (MSD multi-spot), antigen spotted on plate; Fab 0.32 nM; blank 518.
Test [14] concerns the target T2, rHuman EGF R/Fc Chimera, CF (R&D …). The description is as above.
The target in test [15] is T3, rHuman HGF R/c-MET/Fc Chimera, CF (R&D …). The description is as above.
Test [16] has as its target T4, Recombinant Human DLL4 (R&D Systems …). Described as above.
In test [17] the target is T1, rHuman IGF-1 sR (IGF-1 sR), CF (R&D …). Kind of test: ECL (MSD multi-spot), antigen spotted on plate; Fab 1000 nM; blank 2186.
The target of test [18] is T2, rHuman EGF R/Fc Chimera, CF (R&D …). The description is as above.
Test [19] addresses T3, rHuman HGF R/c-MET/Fc Chimera, CF (R&D …). The description is as above.
The target in test [20] is T4, Recombinant Human DLL4 (R&D Systems …). The description is as above.
For test [21], the target named is T1, rHuman IGF-1 sR (IGF-1 sR), CF (R&D …). Kind of test: ECL (MSD multi-spot), antigen spotted on plate; Fab 40 nM; blank 1442.
The target in test [22] is T2, rHuman EGF R/Fc Chimera, CF (R&D …). The test is described as above.
Test [23] has as its target T3, rHuman HGF R/c-MET/Fc Chimera, CF (R&D …). Described as above.
The target in test [24] is T4, Recombinant Human DLL4 (R&D Systems …). Described as above.
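Note: blank spot per well as comparator with Hit at signal to blank ratio of 4 or more.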

B1: Fab VH1-46_IGHD6-6*01>1_IGHJ1*01_S104F & L6_IGKJ1*01 (Fab, V domains shown)
VH: QVQLVQSGAEVKKPGASVKVSCKASGYTFTSYYMHWVRQAPGQGLEWMGIINPSGGSTSYAQKFQGRVTMTRDTSTSTVYMELSSLRSEDTAVYYCAREEYSSFSAEYFQHWGQGTLVTVSS
VL: not shown
notes: Expressed in E. coli as a Fab; The heavy chain also carries the CH1 with Flag and His tags from Plasmid A, and the light chain the kappa CL from Plasmid C; also called VH1-46_IGHD6-6*01_IGHJ1*01 S104F & L6_IGKJ1*01; IGHV1-46*01
In the case of B1, the ECL signal in test [1] worked out at 1520; in test [2], 1470; in test [3], 1620; in test [4], 44800; in [5], 2780; in [6], 2920. Besides, the ECL signal in test [7] was 2840; in [8] it was 58700; in test [9] it was 966; in test [10] it was 987; in [11] it was 861; in [12], 5920. Besides, the ECL signal came to 630 in test [13]; 709 in test [14]; 710 in test [15]; 916 in test [16]; 3070 in test [17]; 3580 in [18]. The ECL signal in test [19] was found to be 3310; in test [20] it was 35300; in test [21] it was 2140; in test [22], 2300; in test [23], 2110; in test [24], 62000.
